Assay results taken from patent publication WO2019077951A1 (dated 2019).

Target: T1, full-length MUC1 (amino acid sequence of SEQ ID NO: 27) (human (human cervical cancer cell line …, UniProt P15941 24-1255, limits assumed))
T1 construct: Full-length protein from cell extract on a Western blot membrane
Assay: Western blotting

T1 sequence (P15941 other isoform, or with tags, fused parts or gaps limits assumed): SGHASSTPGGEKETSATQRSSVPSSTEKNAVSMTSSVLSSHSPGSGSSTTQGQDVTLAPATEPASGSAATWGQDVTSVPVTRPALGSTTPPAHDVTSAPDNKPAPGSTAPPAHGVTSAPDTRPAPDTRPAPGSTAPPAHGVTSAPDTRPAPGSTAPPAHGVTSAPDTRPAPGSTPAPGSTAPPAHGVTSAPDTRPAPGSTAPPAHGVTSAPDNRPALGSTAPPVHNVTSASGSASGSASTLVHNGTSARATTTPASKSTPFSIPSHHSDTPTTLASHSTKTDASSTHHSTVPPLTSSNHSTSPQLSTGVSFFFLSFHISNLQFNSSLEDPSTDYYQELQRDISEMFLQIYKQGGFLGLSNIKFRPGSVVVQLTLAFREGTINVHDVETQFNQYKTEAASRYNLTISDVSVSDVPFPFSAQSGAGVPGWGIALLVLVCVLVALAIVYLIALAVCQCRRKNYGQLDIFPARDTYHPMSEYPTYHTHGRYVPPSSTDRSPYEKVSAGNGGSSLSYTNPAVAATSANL

B1: anti-MUC1 monoclonal antibody (antibody, V domains shown)
VH: EVKLEESGGGLVQPGGSMKLSCVASGFSFSDYWMNWVRQSPDKGLEWISDIRLKSYNYATHYAESVKGRFTISRDDSKSGVYLQMNNLRAEDTGLYYCTFGNSFAYWGQGTLVTVSA
VL: QAVVTQESALTTSPGETVTLTCRSSTGAVTTSNYANWVQEKPDHLFTGLIGGTNNRAPGVPARFSGSLIGDKAALTITGAQTEDEAIYFCALWYSNHWVFGGGTKLTVLG
notes: also called MUC1 antibody
- binding result: binds
